Starred links: 1 amine or outer side, 2 acyl side, 3 side chain; linkers in the order of their positions; H or OH if unused. Positions of bridges follow the written chain, without caps; N, C: chain ends. Non-standard residues stand in square brackets, D forms with d. Primed or numbered codes have the meaning given here. No end group written: not given here. ξ: configuration not given here. *: point of attachment. Af3(MCprAc) = 3-aminophenylalanine with 1-methylcyclopropane-1-carbonyl on the ring amine, CC1(C(=O)Nc2cccc(C[C@H](N[*:1])C(=O)[*:2])c2)CC1; Af3(HO-Succinyl) = 3-aminophenylalanine with succinyl (free acid) on the ring amine, O=C(CCC(=O)[*:3])Nc1cccc(C[C@H](N[*:1])C(=O)[*:2])c1; Af3(Iva) = 3-aminophenylalanine with isovaleryl on the ring amine, CC(C)CC(=O)Nc1cccc(C[C@H](N[*:1])C(=O)[*:2])c1; Af3(Prp) = 3-aminophenylalanine with propionyl on the ring amine, CCC(=O)Nc1cccc(C[C@H](N[*:1])C(=O)[*:2])c1; APAc″ = 2-(4-(amino)piperidin-1-yl)acetic acid, NC1CCN(CC(=O)*)CC1; DOTA = O=C(O)CN1CCN(CC(=O)O)CCN(CC(=O)*)CCN(CC(=O)O)CC1; Phe(3,4-Cl2) = N[C@@H](Cc1ccc(Cl)c(Cl)c1)C(=O)O; Phe(3-CF3) = N[C@@H](Cc1cccc(C(F)(F)F)c1)C(=O)O; Phe(4-CF3) = N[C@@H](Cc1ccc(C(F)(F)F)cc1)C(=O)O; Trp(7-aza) = N[C@@H](Cc1c[nH]c2ncccc12)C(=O)O; ξTrp(7-Me) = Cc1cccc2c(CC(N)C(=O)O)c[nH]c12; Bip = N[C@@H](Cc1ccc(-c2ccccc2)cc1)C(=O)O; ξTrp(1-Me) = Cn1cc(CC(N)C(=O)O)c2ccccc21; Dip = N[C@H](C(=O)O)C(c1ccccc1)c1ccccc1; Phe(4-I) = N[C@@H](Cc1ccc(I)cc1)C(=O)O; mXylylene = c1cc(C[*:1])cc(C[*:2])c1; tBuAla = CC(C)(C)C[C@H](N)C(=O)O; Cha = N[C@@H](CC1CCCCC1)C(=O)O; AGLU′ = not defined here; APAc = not defined here
B1: 3BP-4113 (peptide)
peptide: {DOTA-APAc}-VYCE(AGLU′)[dP]DWLTWSC-NH2
modifications: linker 3-12 via mXylylene; reading uncertain
B2: 3BP-4131 (peptide)
peptide: {DOTA-APAc}-VYCE[dP]D[Bip]LTWSC-NH2
modifications: linker 3-12 via mXylylene; not fully specified; reading uncertain
B3: 3BP-4132 (peptide)
peptide: {DOTA-APAc}-VYCE[dP]D[Dip]LTWSC-NH2
modifications: linker 3-12 via mXylylene; not fully specified; reading uncertain
B4: 3BP-4133 (peptide)
peptide: {DOTA-APAc}-VYCE[dP]D[Phe(3,4-Cl2)]LTWSC-NH2
modifications: linker 3-12 via mXylylene; not fully specified; reading uncertain
B5: 3BP-4134 (peptide)
peptide: {DOTA-APAc}-VYCE[dP]D[Phe(4-I)]LTWSC-NH2
modifications: linker 3-12 via mXylylene; not fully specified; reading uncertain
B6: 3BP-4135 (peptide)
peptide: {DOTA-APAc}-VYCE[dP]D[Phe(3-CF3)]LTWSC-NH2
modifications: linker 3-12 via mXylylene; not fully specified; reading uncertain
B7: 3BP-4139 (peptide)
peptide: {DOTA-APAc}-VYCE[dP]D[Phe(4-CF3)]LTWSC-NH2
modifications: linker 3-12 via mXylylene; not fully specified; reading uncertain
B8: 3BP-4142 (peptide)
peptide: {DOTA-APAc″}-VYCE[dP]DW[tBuAla]TWSC-NH2
modifications: linker 3-12 via mXylylene
B9: 3BP-4143 (peptide)
peptide: {DOTA-APAc″}-VYCE[dP]DW[Cha]TWSC-NH2
modifications: linker 3-12 via mXylylene
B10: 3BP-4144 (peptide)
peptide: {DOTA-APAc″}-VYCE[dP]D[ξTrp(1-Me)]LTWSC-NH2
modifications: linker 3-12 via mXylylene; not fully specified
B11: 3BP-4158 (peptide)
peptide: {DOTA-APAc″}-VYCE[dP]D[ξTrp(7-Me)]LTWSC-NH2
modifications: linker 3-12 via mXylylene; not fully specified
B12: 3BP-4159 (peptide)
peptide: {DOTA-APAc″}-VYCE[dP]DWLT[Trp(7-aza)]SC-NH2
modifications: linker 3-12 via mXylylene
B13: 3BP-4178 (peptide)
peptide: [dP]PVYCE[dP]DWLTWSC
modifications: linker 5-14 via mXylylene; not fully specified (bridges)
notes: Bracket use differs from the other compounds; the outer cycle is read as closing pro1 with Cys14
B14: 3BP-4234 (peptide)
peptide: {DOTA-APAc″}-VYCE[dP]D[Af3(MCprAc)]LTWSC-NH2
modifications: linker 3-12 via mXylylene
B15: 3BP-4235 (peptide)
peptide: {DOTA-APAc″}-VYCE[dP]D[Af3(Prp)]LTWSC-NH2
modifications: linker 3-12 via mXylylene
B16: 3BP-4236 (peptide)
peptide: {DOTA-APAc″}-VYCE[dP]D[Af3(Iva)]LTWSC-NH2
modifications: linker 3-12 via mXylylene
B17: 3BP-4237 (peptide)
peptide: {DOTA-APAc″}-VYCE[dP]D[Af3(HO-Succinyl)]LTWSC-NH2
modifications: linker 3-12 via mXylylene

Each binder was assayed against human carbonic anhydrase 9 (CAIX) (human, UniProt Q16790 38-459) (assay: FACS competition on HT-29 cells, competitor tracer 3BP-2776; category A = pIC50 >8.0).
Procedure: CAIX-expressing human HT-29 colorectal cancer cells (DSMZ, RRID: CVCL_0320) were cultured in McCoys's 5A modified medium (Biochrom, #F1015) including 10% fetal calf serum (FCS), 2 mM L-glutamine, 100 U/ml penicillin and 100 μg/mL streptomycin. Cells were detached with Accutase (Biolegend, #423201) and washed in FACS buffer (PBS including 1% FCS). Cells were diluted in FACS buffer to a final concentration of 500.000 cells per ml. 200 μL of the cell suspension were transferred to a u-shaped non-binding 96-well plate (Greiner) and cells were washed in ice-cold FACS buffer.
When biotinylated compounds were used an additional incubation step with 1 μg/mL APC-Streptavidin (Miltenyi; #130-106-791) in 50 μL FACS buffer for 30 minutes on ice was performed.
Cells were washed twice with ice-cold FACS buffer and analyzed in an Attune NxT flow cytometer (Thermo Fisher). Median fluorescence intensities (MFI) of the APC/Cy5-channel were calculated by Attune NxT software.

pIC50, > 8 pic50:
B1, B2, B3, B4, B5, B6, B7, B8, B9, B10, B11, B12, B13, B14, B15, B16, B17
